Test results from paper PMC3308894.
Several values for one entry are separate records, joined by “and”; a condition that tells them apart may be missing. Equal values may be shown once.

Assays:
Assay in all cases: other fluorescence titration
[1] = molecular target: histone H2A-H2B complex, fluorescently labeled (Xenopus laevis) (UniProt P06897)
[2] = molecular target: 207-bp linker DNA-containing nucleosome (Nuc207) (Xenopus laevis)
[3] = molecular target: histone H3-H4 complex, fluorescently labeled (Xenopus laevis) (UniProt P84233)
[4] = molecular target: tri-nucleosome array LE (linker-ended), 621-bp DNA (Xenopus laevis)
[5] = molecular target: tail-less histone H2A-H2B complex, fluorescently labeled (Xenopus laevis) (UniProt P06897)
[6] = molecular target: an individual nucleosome, whether mono or as part of an array
[7] = molecular target: tri-nucleosome array NLE (nonlinker-ended), 561-bp DNA (Xenopus laevis)
[8] = molecular target: 147-bp nucleosome, which contains no linker DNA (Nuc147) (Xenopus laevis)

Substance: Spt16 (Suppressor of ty 16) subunit of FACT (from UniProt Q9Y5B9 1-1047) (natural protein)
- Kd [1]: 85 nM

Substance: FACTΔCTD (Spt16 acidic C-terminal domain truncation + SSRP1) (from UniProt Q9Y5B9;Q08945) (complex)
- fold increase of Kd(app) against full-length FACT [1]: 6 fold
- fold less affinity than FACT [2]: 20 fold
- fold less affinity than SSRP1 alone [2]: 7 fold
- Kd [3]: > 1000 nM

Substance: FACT (facilitates chromatin transcription) complex, full-length, de-phosphorylated (from UniProt Q9Y5B9;Q08945)
- Kd [1]: 31 nM
- Kd [4]: 26 nM
- stoichiometry N (FACT:tri-nucleosome) [4]: 3.3
- fold lower affinity than for tail-containing H2A-H2B [5]: 7 fold
- stoichiometry N (FACT molecules per nucleosome) [6]: 1 and 2
- Kd [2]: 22 nM
- Kd [7]: 36 nM
- stoichiometry N (FACT:tri-nucleosome) [7]: 2.4
- Kd [8]: 64 nM

Substance: SSRP1 (structure-specific recognition protein 1) subunit of FACT (from UniProt Q08945 1-709) (natural protein)
- Kd [2]: 67 nM
- Kd [8]: > 1000 nM
